Reference: patent US20260167959A1, “APTAZYME-BASED REGULATABLE GENE EXPRESSION SYSTEMS” (REJUVENATE BIO INC, priority 2022, published 2026)

B1: RA246 (nucleic acid)
DNA: GCGCGTCCTGGATTCGCGGAGAATACCAGCATCGTCTTGATGCCCTTGGAAGTCTCGAAACGCGTACATCCAGCTGACGAGTCCCAAATAGGACGAAACGCGC
modifications: expressed or natural sequence
B2: RA242 (nucleic acid)
DNA: GCGCGTCCTGGATTCCGGAATACCAGCATCGTCTTGATGCCCTTGGAAGTCCGGCGCGGAAACGCGTACATCCAGCTGACGAGTCCCAAATAGGACGAAACGCGC
modifications: expressed or natural sequence
B3: RA238 (nucleic acid)
DNA: GCGCGTCCTGGATTAGAATACCAGCATCGTCTTGATGCCCTTGGAAGTCTCGCGGAAACGCGTACATCCAGCTGACGAGTCCCAAATAGGACGAAACGCGC
modifications: expressed or natural sequence
B4: RA210: SEQ ID NO 210; theophylline inducible aptazyme (nucleic acid)
chain: GCTGTCACCGGAATACCAGCATCGTCTTGATGCCCTTGGAAGTCCGGTCTGATGAGTCCAAAAAGGACGAAACAGC
modifications: chemistry not given here
notes: theophylline inducible aptazyme
B5: RA023 (nucleic acid)
DNA: GCGCGTCCTGGATTCGCGGAAACGCGTGAGAATACCAGCATCGTCTTGATGCCCTTGGAAGTCTCACATCCAGCTGACGAGTCCCAAATAGGACGAAACGCGC
modifications: expressed or natural sequence
B6: RA245 (nucleic acid)
DNA: GGGAATACCAGCATCGTCTTGATGCCCTTGGAAGTCCCGCGTCCTGGATTCGCGGAAACGCGTACATCCAGCTGACGAGTCCCAAATAGGACGAAACGCGC
modifications: expressed or natural sequence
B7: RA241 (nucleic acid)
DNA: GCGCGTCCTCCGGAATACCAGCATCGTCTTGATGCCCTTGGAAGTCCGGGGATTCGCGGAAACGCGTACATCCAGCTGACGAGTCCCAAATAGGACGAAACGCGC
modifications: expressed or natural sequence
B8: RA248 (nucleic acid)
DNA: GCGCGTCCTGGATTCGCGGAAACGCGTACATCCAGCTGACGAGTCCAGTGATACCAGCATCGTCTTGATGCCCTTGGCAGCACTCAAATAGGACGAAACGCGC
modifications: expressed or natural sequence
B9: RA250 (nucleic acid)
DNA: GCGCGAGTGATACCAGCATCGTCTTGATGCCCTTGGCAGCACTTCCTGGATTCGCGGAAACGCGTACATCCAGCTGACGAGTCCCAAATAGGACGAAACGCGC
modifications: expressed or natural sequence
B10: RA024 (nucleic acid)
DNA: GCGCGTCCTGGATTCGCGGAAACGCGTACATCCAGCTGACGAGTCCCAAATAGGACAGTGATACCAGCATCGTCTTGATGCCCTTGGCAGCACTGAAACGCGC
modifications: expressed or natural sequence
B11: RA243 (nucleic acid)
DNA: GCGCGTCCTGGATTCGCGGAAACGCGTACATCCAGCCCGGAATACCAGCATCGTCTTGATGCCCTTGGAAGTCCGGTGACGAGTCCCAAATAGGACGAAACGCGC
modifications: expressed or natural sequence
B12: RA247 (nucleic acid)
DNA: GCGCGTCCTGGATTCGCGGAAACGCGTACATCCAGCTGAGGAATACCAGCATCGTCTTGATGCCCTTGGAAGTCCCGAGTCCCAAATAGGACGAAACGCGC
modifications: expressed or natural sequence
B13: RA240 (nucleic acid)
DNA: GCGCGTCCTGGATTCGCGGAAACGCGTACATCCAGCTGACGAGTCCCCGAGAATACCAGCATCGTCTTGATGCCCTTGGAAGTCTCGAAATAGGACGAAACGCGC
modifications: expressed or natural sequence
B14: RA239 (nucleic acid)
DNA: GCGCGTCCTGGATTCGCGGAAACGCGTACATCCAGCTGACCCGGAATACCAGCATCGTCTTGATGCCCTTGGAAGTCCGGGAGTCCCAAATAGGACGAAACGCGC
modifications: expressed or natural sequence
B15: RA249 (nucleic acid)
DNA: GCGCGTCCTGGATTCGCGGAAACGCGTACATCCACCGGAATACCAGCATCGTCTTGATGCCCTTGGAAGTCCGGGCTGACGAGTCCCAAATAGGACGAAACGCGC
modifications: expressed or natural sequence
B16: RA244 (nucleic acid)
DNA: GCGCGTCCTGGATTCGCGGAAACGCGTCCGGAATACCAGCATCGTCTTGATGCCCTTGGAAGTCCGGACATCCAGCTGACGAGTCCCAAATAGGACGAAACGCGC
modifications: expressed or natural sequence

Test system: Renilla luciferase RNA
Experiment: Barcoded aptazyme variant library screen: un-cleaved Renilla luciferase RNA by barcode read counts, HEK293-T cells
Format: cell-based
Details: un-cleaved Renilla luciferase RNA, HEK293-T cells cultured with 1 mM theophylline (ON) over without theophylline (OFF); barcode read counts, triplicate
Summary of the method: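 Barcode sequencing of cDNA versus DNA, normalized per aptazyme, gave the un-cleaved Renilla luciferase RNA fraction and fold-change with versus without theophylline (triplicates). Library: T3H48 ribozyme with one of seven theophylline aptamer variants inserted at each position, placed in the Renilla 3′ UTR of a dual-luciferase vector.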

B1 and B2 are the same in “Fold change in RNA expression between the ON state and the OFF state” value (shortened to “Fold change”): 1.1 fold for the first, 1.1 fold for the second.

Compared with B3, B4 is higher in “Fold change” value: 1.1 fold for the first, 1.2 fold for the second.

First: B5
Second: B6
The “Fold change” value of the first is higher: 2.6 fold for the first, 1.1 fold for the second.

B7 and B8 are the same in “Fold change” value: 1.1 fold for the first, 1.1 fold for the second.

Going from B9 to B10, the “Fold change” value rises from 1.1 fold to 2.6 fold.

B11 and B12 are the same in “Fold change” value: 1.1 fold for the first, 1.1 fold for the second.

B13 and B14 are the same in “Fold change” value: 1.1 fold for the first, 1.1 fold for the second.

B15 and B16 are the same in “Fold change” value: 1.1 fold for the first, 1.1 fold for the second.

Test system: GFP
Experiment: not given
Details: HEK293-T cells, dual FP plasmid, 24 hours post-transfection

In the case of B4, the “Fold-change in GFP expression, presence of theophylline over absence of theophylline” value is reported as 2.55 ×.
